Test results published in patent US7740850B2, “PDGFRβ-specific antibodies” (ImClone, LLC, priority 2007, dated 2010).

B1: 2C5: PDGFRβ-specific human antibody binding both human and murine PDGFRβ; SEQ ID NOS in Table 1 (antibody, listed as Homo sapiens, V domains shown)
VH: QVQLVQSGAEVKKPGSSVKVSCKASGGTFSSYAISWVRQAPGQGLEWMGRIIPILGIANYAQKFQGRVTITADKSTSTAYMELSSLRSEDTAVYYCARDMGSRNYYYFYWGQGTLVTVSS
VL: EIVLTQSPATLSLSPGERATLSCRASQSVGRYLAWYQQKPGQAPRLLIYGASNRATGIPARFSGSGSGTDFTLTISSLEPEDFAVYYCQQRSNWPLTFGGGTKVEIK
B2: 1B3: human anti-mouse PDGFRβ antibody from Fab phage display library, human κ/γ1 constant regions; SEQ ID NOS in Table 1 (antibody, listed as Homo sapiens, V domains shown)
VH: QVQLQESGGGLVKPGGSLRLSCAASGFTFSSYSMNWVRQAPGKGLEWVSSISSSSSYIYYADSVKGRFTISRDNSKNTLYLQMNSLRAEDTAVYYCAKGGRPLLVFDFWGQGTLVTVS
VL: EIVMTQSPGTLSLSPGERATLSCRASQSVSSSYLAWYQQKPGQAPRLLIYDASKRATGIPARFSGSGSGTDFTLTISTLESEDSAVYYCQQRGYWPPITFGQGTRLEIKR
modifications: human kappa/gamma1 constant regions

Tests used:
mPDGFRβ = mPDGFRβ (Mus musculus, UniProt P05622); test: Antibody affinity determination (BIAcore, surface plasmon resonance); format: binding
Protocol: Antibody affinity determination. The binding kinetics of various Fab and IgG to mPDGFRβ were measured using a BIAcore 3000 biosensor (BIACORE, Inc., Uppsala, Sweden). Briefly, mPDGFRβ was immobilized onto a sensor chip and soluble antibodies were injected at concentrations ranging from 1.5 nM to 100 nM. Sensorgrams were obtained at each concentration and were evaluated using the program, BIA Evaluation 2.0. The affinity constant, Kd, was calculated from the ratio of dissociation rate (koff)/association rate (kon) (Lu, D. et al., 2002; Zhu, Z. et al., 1998; Loizos, N. et al., 2005).

human PDGFRα = human PDGFRα (Homo sapiens, UniProt P16234); test: Binding to PDGFRα
[1] = tested on: Akt and p44/42 MAP kinase in D122 cells; test: PDGF-BB-stimulated downstream signaling (Western blot); format: cell-based, mouse
Text: To study the downstream signaling, the cell lysate from the above treatment were resolved by a 4-12% NuPAGE Bis-Tris gel. Phosphorylated Akt and p44/42 mitogen-activated protein kinase (MAPK) were detected using an anti-phospho-Akt and an anti-phospho-p44/p42 MAPK and p44/p42 MAPK, respectively (eBioscience, San Diego, Calif.).

[2] = tested on: OV-CAR-5 ovarian carcinoma xenograft; test: Subcutaneous tumor xenograft model; format: in vivo, mouse; conditions: for Tumor Volume T/C %: OVCAR-5 xenograft, monotherapy
Protocol: (§1) Six xenograft models, SK-OV-3, OV-CAR-8, BxPC-3, OV-CAR-5, Caki-1 and NCI-H460 (A to F, respectively) were used to examine the effects of 1B3 on xenograft tumors in athymic nude mice. Mice with established tumors (˜250-300 mm^3) were randomly grouped and treated with 1B3, normal human IgG, or saline by intraperitoneal injection twice weekly (except for BxPC-3 model where the mice were treated three times a week) at the dose indicated. Tumor volumes were measured twice a week and are presented as mean±SEM. *1 indicates the loss of one mouse due to severe illness. 1B3 binds to mouse, but not human, PDGFRβ. Accordingly, the observed responses to treatment result from inhibition of stimulation of host cells.
(§2) Antitumor activity of anti-mPDGFRβ antibody in tumor xenograft models. Six human xenograft tumor models, including three ovarian carcinoma (SK-OV-3, OV-CAR-5 and OV-CAR-8), one pancreatic carcinoma (BxPC3), one lung carcinoma (NCI-H460), and one kidney carcinoma (Caki-1), were used to assess the antitumor activity of 1B3 in vivo. Athymic (nu/nu) mice (female, 7-8 weeks of age) were housed for 7-10 days before xenograft implantation. Each mouse was injected subcutaneously with 3-10×10^6 cells of SK-OV-3, OVCAR-5, OVCAR-8, Caki-1, BxPC3 or NCI-H460 tumor cells. When tumors reached approximately 250-300 mm^3, mice were randomized into groups of 10 to 12 animals each and treated by intraperitoneal injection, 2 to 3 times per week, with 1B3, DC101, or 1B3 in combination with DC101. Human IgG and/or USP saline were used as control groups. Tumor sizes and mouse body weight were measured twice a week. Tumor volume was calculated using the formula: π/6×(length×width^2), where length=longest diameter and width=diameter perpendicular to length. The ratio of average tumor volume in the treatment group versus that in the control group (T/C %) was calculated. Statistic analysis was performed by Student's t-test.
(§3) To study the antitumor effects of monotherapy with an anti-PDGFRβ antibody, mice were treated with 1B3, normal human IgG, or saline twice weekly by intraperitoneal injections. In SK-OV-3 model, tumor-bearing mice were given 1B3 at 6, 20, or 60 mg/kg dose.
(§4) Antitumor activity of anti-PDGFRβ antibody in tumor xenograft models. The five human xenograft tumor models described above (OVCAR-5 and OVCAR-8, BxPC3, NCI-H460, and Caki-1) were used to assess the antitumor activity of 2C5 in vivo. 2C5 which binds to and inhibits human PDGFRβ receptors of the tumor and mouse receptors of the vasculature was compared to 1B3 which bound only to mouse vasculature. […] (FIG. 9; Table 2).

[3] = tested on: OV-CAR-8 ovarian carcinoma xenograft; test: Subcutaneous tumor xenograft model; format: in vivo, mouse; conditions: for Tumor Volume T/C %: OVCAR-8 xenograft, monotherapy
Protocol: as §1, §2, §3, §4

[4] = tested on: BxPC-3 pancreatic carcinoma xenograft; test: Subcutaneous tumor xenograft model; format: in vivo, mouse; conditions: for Tumor Volume T/C %: BxPC3 xenograft, monotherapy
Protocol: Six xenograft models, SK-OV-3, OV-CAR-8, BxPC-3, OV-CAR-5, Caki-1 and NCI-H460 (A to F, respectively) were used to examine the effects of 1B3 on xenograft tumors in athymic nude mice. Mice with established tumors (˜250-300 mm^3) were randomly grouped and treated with 1B3, normal human IgG, or saline by intraperitoneal injection twice weekly (except for BxPC-3 model where the mice were treated three times a week) at the dose indicated.
Subcutaneous xenografts of BxPC-3 (A) or 5×10^6 NCI-H460 (B) were established in female athymic (nu/nu) mice. When tumors reached ˜300-350 mm^3, mice were randomized and divided into four groups (n=12), and treated with USP saline, 40 mg/kg of 1B3, 40 mg/kg of DC101 or 40 mg/kg 1B3 plus 40 mg/kg DC101, three times a week.
as §2, with “Six” for “Antitumor activity of anti-mPDGFRβ antibody in tumor xenograft models. Six”
as §3
Athymic nude mice bearing xenografted tumors of 300-350 mm^3 size were randomized and divided into four treatment groups (n=12/group), and were treated by intraperitoneal injections three times a week with saline, 1B3 (40 mg/kg), DC101 (40 mg/kg), or 1B3 (40 mg/kg) plus DC101 (40 mg/kg).
The five human xenograft tumor models described above (OVCAR-5 and OVCAR-8, BxPC3, NCI-H460, and Caki-1) were used to assess the antitumor activity of 2C5 in vivo.

human PDGFRα, sequence (P16234 24-1089): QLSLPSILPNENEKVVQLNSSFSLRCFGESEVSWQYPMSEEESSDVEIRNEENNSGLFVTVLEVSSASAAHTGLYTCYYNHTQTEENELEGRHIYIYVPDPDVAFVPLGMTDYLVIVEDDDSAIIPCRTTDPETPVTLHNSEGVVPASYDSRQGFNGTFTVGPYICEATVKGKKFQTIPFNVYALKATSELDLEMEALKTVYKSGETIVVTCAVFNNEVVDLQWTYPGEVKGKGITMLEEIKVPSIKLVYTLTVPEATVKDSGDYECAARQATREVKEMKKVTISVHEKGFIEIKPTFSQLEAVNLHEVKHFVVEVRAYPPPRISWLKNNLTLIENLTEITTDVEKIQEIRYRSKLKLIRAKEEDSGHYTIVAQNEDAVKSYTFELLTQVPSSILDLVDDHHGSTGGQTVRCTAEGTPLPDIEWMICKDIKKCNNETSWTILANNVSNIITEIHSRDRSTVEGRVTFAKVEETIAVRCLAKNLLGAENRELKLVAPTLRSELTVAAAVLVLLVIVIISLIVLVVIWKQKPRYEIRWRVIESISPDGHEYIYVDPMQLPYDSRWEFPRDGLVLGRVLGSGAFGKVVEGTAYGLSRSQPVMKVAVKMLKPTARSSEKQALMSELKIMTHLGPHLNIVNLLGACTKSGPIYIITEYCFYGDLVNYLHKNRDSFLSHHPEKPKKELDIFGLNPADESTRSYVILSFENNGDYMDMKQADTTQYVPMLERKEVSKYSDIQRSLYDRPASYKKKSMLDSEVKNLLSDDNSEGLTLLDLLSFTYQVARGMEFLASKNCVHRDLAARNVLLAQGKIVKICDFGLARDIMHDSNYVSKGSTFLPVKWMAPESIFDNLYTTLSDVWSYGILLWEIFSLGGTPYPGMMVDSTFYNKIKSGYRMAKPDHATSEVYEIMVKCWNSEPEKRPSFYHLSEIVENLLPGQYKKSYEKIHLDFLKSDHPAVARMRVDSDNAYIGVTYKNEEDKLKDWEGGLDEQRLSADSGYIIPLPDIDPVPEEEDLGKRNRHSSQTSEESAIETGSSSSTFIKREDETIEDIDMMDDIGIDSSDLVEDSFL
mPDGFRβ, sequence (P05622 32-1098): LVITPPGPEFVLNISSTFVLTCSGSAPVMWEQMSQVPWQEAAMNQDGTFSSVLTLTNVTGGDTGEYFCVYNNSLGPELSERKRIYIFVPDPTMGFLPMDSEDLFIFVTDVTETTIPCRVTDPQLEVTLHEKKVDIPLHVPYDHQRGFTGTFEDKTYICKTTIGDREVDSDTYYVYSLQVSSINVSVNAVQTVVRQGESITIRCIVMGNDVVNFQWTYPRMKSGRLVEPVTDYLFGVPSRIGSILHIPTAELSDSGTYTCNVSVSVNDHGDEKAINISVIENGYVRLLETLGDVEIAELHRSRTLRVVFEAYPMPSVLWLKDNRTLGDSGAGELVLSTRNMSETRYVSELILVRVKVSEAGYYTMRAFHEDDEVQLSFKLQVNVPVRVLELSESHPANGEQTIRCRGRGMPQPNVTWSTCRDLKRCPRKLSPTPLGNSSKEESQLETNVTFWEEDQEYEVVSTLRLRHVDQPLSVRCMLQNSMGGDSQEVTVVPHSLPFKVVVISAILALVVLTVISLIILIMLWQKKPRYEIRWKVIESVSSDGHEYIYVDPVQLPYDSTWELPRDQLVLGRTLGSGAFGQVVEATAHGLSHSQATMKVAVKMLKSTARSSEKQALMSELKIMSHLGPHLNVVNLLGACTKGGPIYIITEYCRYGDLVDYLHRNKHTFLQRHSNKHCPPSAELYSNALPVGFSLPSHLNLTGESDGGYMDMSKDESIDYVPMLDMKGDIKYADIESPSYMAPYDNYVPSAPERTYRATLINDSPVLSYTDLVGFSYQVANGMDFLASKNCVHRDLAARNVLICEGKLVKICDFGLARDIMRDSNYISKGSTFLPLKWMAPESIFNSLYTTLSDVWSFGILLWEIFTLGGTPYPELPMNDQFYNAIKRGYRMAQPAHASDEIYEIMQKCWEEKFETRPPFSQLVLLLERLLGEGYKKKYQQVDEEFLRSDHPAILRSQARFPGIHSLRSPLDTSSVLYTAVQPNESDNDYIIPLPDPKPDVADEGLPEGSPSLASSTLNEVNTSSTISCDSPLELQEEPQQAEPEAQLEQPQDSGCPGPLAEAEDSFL

Molecule	Kd (mPDGFRβ; surface plasmon resonance, one experiment) [nM]	binding to human PDGFRα (human PDGFRα)	inhibition of PDGF-BB-stimulated phosphorylation of Akt and p44/42 MAP kinase [1]	Tumor Volume T/C % [2] [%]	Tumor Volume T/C % [3] [%]	Tumor Volume T/C % [4] [%]	increase of affinity for mPDGFRβ of IgG over its Fab form (mPDGFRβ; BIAcore)	antitumor activity ([2]; OV-CAR-5, 40 mg/kg three times per week or 60 mg/kg twice weekly)	tumor growth inhibition ([3]; OV-CAR-8, 60 mg/kg i.p. twice weekly)	tumor regression, number of mice ([4]; BxPC3, 40 mg/kg each antibody i.p. three times a week)	antitumor activity ([4]; BxPC3, monotherapy 40 mg/kg i.p. three times a week)
B1	0.0605	does not bind	potently inhibited	84	39	100	–	–	–	–	–
B2	–	did not bind	potently inhibited	92	43	100	approximately 57 times	failed to show any antitumor activity	almost completely blocked the growth	no regressions	failed to show any antitumor activity
